# Assay results taken from paper PMC8195445.
# Key:
# [1] = biological target: GST-calmodulin N-half (CaM-N, residues 1–74) (UniProt P0DP23); assay: pull-down
# [2] = biological target: GST-calmodulin C-half (CaM-C, residues 75–148) (UniProt P0DP23); assay: pull-down
Substance,percent of the binding to Ca2+-CaM-F [1] [%],percent of the binding of IQ3R to Ca2+-CaM-F [2] [%],percent of the binding of IQ3R to Ca2+-CaM-F [1] [%]
IQGAP1 wild-type IQ domain (amino acids 717–916) (from UniProt P46940 717-916) (domain or fragment),32,,
IQGAP1 IQ domain (amino acids 717–916) IQ3R mutant (from UniProt P46940 717-916) (domain or fragment),,15,27
